{"source": "paper PMC9406036", "about": "“The Catalytic Domain Mediates Homomultimerization of MT1-MMP and the Prodomain Interferes with MT1-MMP Oligomeric Complex Assembly” (Biomolecules, 2022)", "proteins": {"B1": {"name": "WT-Cat-L (catalytic domain with the linker of MT1-MMP), secreted without the prodomain (domain or fragment)", "chain": "not shown", "notes": "human MT1-MMP (MMP-14) catalytic domain with the linker; Found as monomer, dimer and higher multimers on gel filtration; also called Cat-L construct; source: Drosophila S2 insect cells, purified (IMAC, Sephacryl S-200)"}}, "target": "the molecule itself", "test": "SEC; preparative Sephacryl S-200 gel filtration (120 mL), IMAC-purified protein at about 1 mg/mL, 1 mL injected after a 0.22 µm filter, 50 mM Tris pH 7.4, 150 mM NaCl, 5 mM CaCl2, 10 µM CT1746; sizes from a calibration curve; fractions checked by SDS-PAGE", "note": "Where “and” joins values, the source holds several entries; their conditions need not be identical. Identical values can stand only once.", "data": [{"protein": "B1", "values": [{"measurement": "stoichiometry N", "value": "2 and > 3"}]}]}
